Variants at the floor of the assay were thinned out.
B1: TPR 5TU (parent)
chain: GGAUCUUCUCGAUCUAACAAAAAAGACAAAUCUGCCACAAAGCUUGAGAGCAUCUUCGGAUGCAGAGGCGGCAGCCUUCGGUGGCGCGAUAGCGCCAACGUUCUCAACUAUGACACGCAAAACGCGUGCUCCGUUGAAUGGAGUUUAUCAUG

Variants of: B1
Assay: polymerase ribozyme fitness, log enrichment relative to wild type (log ratio); higher = more active; in vitro selection for triplet polymerase activity
Procedure, shortened: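 PCR was used to build mutant libraries for each subunit of a heterodimeric triplet polymerase ribozyme, which were then transcribed. A single in vitro selection round, in triplicate, used a frozen incubation at −7 °C and recovered extended constructs by gel excision, streptavidin beads and RT-PCR. Fitness is the logarithm of genotype enrichment relative to wild-type enrichment, averaged over replicates with inverse-variance weights. The logarithm is base 2, and after Illumina sequencing only genotypes with ≥10 input reads and ≥1 read per output were kept.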

Variant | polymerase ribozyme fitness (log ratio)
A73C C87G G141C | ≤ -4.2
A73C A91G C116U | ≤ -4.2
G71A C76G U82A G83C C131A | ≤ -4.2
C72U G126U C132A | -4.12
A73C G94A C95U U102C G126C G141U | ≤ -4.2
A73G U134G | -2.2
C72G U77G G84A C114G | ≤ -4.2
A73G G83A | -1.72
A73C A107G | ≤ -4.2
A73G C96G C105A U139A | ≤ -4.2
C72U A147C | -1.72
C72U A147U | 0.651
G70U A119C | -2.09
G71U G84A | -2.59
G71C A119G | -3.01
G71A C85U C96A A107G C118A | ≤ -4.2
G71A A91U U146G | ≤ -4.2
C72A G81U G83C C93U | ≤ -4.2
A73G C99U | -0.979
C72U G128U | -3.1
A73G A142C | -1.76
A73G A89U | -0.161
G70U G81A | -2.35
A73G U104C | -0.284

Variant | polymerase ribozyme fitness (log ratio)
A73G C95U A122U C125U U127G A138G | ≤ -4.2
G71C A91U G136C | ≤ -4.2
A73U C79U G88A A119G G124U C149A | ≤ -4.2
C72U C93U | -0.741
A73U C85U G117U | -0.841
A73G C85A | -1.22
C72A C114A | ≤ -4.2
C72U C87U C105A | -3.79
G71A C85G C87U | ≤ -4.2
C72U G124U A142G | -2
G71U A89U U135A | ≤ -4.2
C72U C95U C96U U146A | -2.06
G70U G136A | -1.86
C72U A122G | -0.726
G71U G86U C125A A138G | -3.99
G71U A120G U146C | -2.36
C72G C108U A137C | ≤ -4.2
G71U G74C A120C | ≤ -4.2
G70U G80U A119G | ≤ -4.2
A73G C93U A110U | ≤ -4.2
G71A G86A | -3.5
G71A G80U C85U | ≤ -4.2
A73C C96G C118U G143U | ≤ -4.2
A73U C75G G88C | ≤ -4.2

Variant | polymerase ribozyme fitness (log ratio)
G71U A142C | ≤ -4.2
G71U C72A A91G C116A A138U | ≤ -4.2
A73G C118G C132G | ≤ -4.2
C72U A91U G92A U127G | ≤ -4.2
C72U U145A | 0.261
A73G C85U G88A A119U U134A G140C | ≤ -4.2
C72U C93G A106G A121U | -2.98
G71U C116U | -2.4
A73G G128C | -3.67
G70U C85U G88C U145C | ≤ -4.2
G70U C87A A115U C116A U151A | ≤ -4.2
G71U G84U U101C G117U C123U | -4.15
G71C G84A A119U | -2.68
C72U C96A C105U C132U | -1.29
A73C G81C A110G A121G | ≤ -4.2
C72U G143C | -3.23
A73C A121U G133U | ≤ -4.2
C72U G83A C93U U111C A120U G143U | ≤ -4.2
A73G C93A U146C | -2.15
C72A G140U | ≤ -4.2
C72U G126U | -0.101
G71A C87G C93A C95G | ≤ -4.2
G71U G92U G136A | -2.26
A73G C95U | -0.166

Variant | polymerase ribozyme fitness (log ratio)
A73G C76A G88C C105G C108G C114U G136U | -3.91
C72G A91C | ≤ -4.2
A73G C79U C96U A142U | ≤ -4.2
C72G C96U C116U | ≤ -4.2
A73G C87G U101G U139C | ≤ -4.2
G71C C85U | -3.27
A73G C93U G141U | 0.326
G71A A91U C95G A119U A121G C129A A147G | ≤ -4.2
A73C A113C | ≤ -4.2
G71U U144G | -1.84
G71U G83U | -3.48
G71U G83C | -2.74
G71C A91U C93U U104G | ≤ -4.2
G71U A91U A122G G143U U145C | ≤ -4.2
C72G C85G | ≤ -4.2
G71U C108U | ≤ -4.2
G70U G84U C87U G100A | ≤ -4.2
A73G G88A A107G | ≤ -4.2
C72G G81U C87A C95U U104A | ≤ -4.2
A73C A142U | ≤ -4.2
C72A U148A | ≤ -4.2
A73U C85A | -2.44
G71A C87A G92C | -3.04
G70C U134G | -4.17

Variant | polymerase ribozyme fitness (log ratio)
G71C C95U C132U G141A U146G | ≤ -4.2
G70U A122C U144G | -2.06
G71A U104C | -3.42
A73G C96U A119U | -0.341
C72G G86C | ≤ -4.2
G71C G83U G141A A147C C149A | ≤ -4.2
C72U G92U U135A G143A | -3.54
G71C G92A | ≤ -4.2
G71C G92U | -3.46
G71U A147C | -3.65
C72U U90C C93A U104A U127A | ≤ -4.2
C72A | -3.87
C72G | -3.79
C72U | -0.00972
G71A C99U | ≤ -4.2
C72U C87A A98U A138C | ≤ -4.2
C72U C76A G84A C87U A91G A106G C125A | ≤ -4.2
G70U C76A | -4.19
A73G C87A | -4.18
A73G C87U | -1.55
A73C G86C U104C | ≤ -4.2
A73G G83U G84U | -1.48
G71C C95A | ≤ -4.2
A73U C75U C118G | ≤ -4.2

Variant | polymerase ribozyme fitness (log ratio)
A73U A150G | -2.68
C72U G86C C105A C114U G140U | ≤ -4.2
C72A U77A G88C C93G U111G A137U U139G | ≤ -4.2
A73G C85U C96G C108G U127G G136C | ≤ -4.2
G71U G141U | -3.55
G71U A89U | -2.83
A73U C76A U77A G94C U104G A106G C108U | ≤ -4.2
G71C C93U C95G C99G A115C | -3.95
G71C C76G A113U G124A | ≤ -4.2
A73G G84U | -1.29
C72U U134A | -2.32
C72U A91U C96G | ≤ -4.2
A73G A97G | 0.222
C72A C85A | -3.85
A73G A107U | -4.1
G71A C95U C132U | -4.11
C72U C85G | -1.95
G70U U139G | -2.93
G70U A73U A89G C95G G141U | ≤ -4.2
G71C U82C | -2.48
C72U C87U U101G G124C | -1.6
C72A U78G C85U A97U G140C | ≤ -4.2
G71A C96A | -3.18
A73G U77C G88C | ≤ -4.2

Variant | polymerase ribozyme fitness (log ratio)
A73G C76U C93A C99A U145A | ≤ -4.2
A73G U145G | -0.0134
C72U C96G U127C C131U G140U U151A | ≤ -4.2
A73G G126C | 0.529
A73G G126U | -0.214
A73G U148C | -2.55
A73G U148A | -3.81
C72U C93G U130C G133C | ≤ -4.2
A73G C87G U146G | ≤ -4.2
C72U G152A | -2.42
A73G A106C U111A U144A | ≤ -4.2
C72U G92A C116U U139G | -3.15
C72G A89G G92A C114G | ≤ -4.2
G71A G94A | -2.94
A73G C114U | -2.66
A73G G86A | -2.14
A73G C125G | -0.161
C72G G83U G124U G128U G133A U148A | ≤ -4.2
A73G C93A A110C U139A | ≤ -4.2
G71U C93U U104G C149A | ≤ -4.2
G71U G94C A110G | ≤ -4.2
C72A A91U U145A | ≤ -4.2
C72U G86A C95A A97G A98U U104A A122U | ≤ -4.2
